From the supplement of paper PMC7125110
± gives the standard error. For some assays here: Fewer inactive variants are shown than the library holds.

B1: glmS ribozyme (parent)
chain: AUAAAAGCGCCAGAACUACAGAAAUGUAGUUGACGAGGAGGAGGUUUAUCGAAUUUUCGGCGGAUGCCUCCAAA

Legend:
Conditions in all cases: with glucosamine-6-phosphate
glucosamine-6-phosphate [1] = variants of: B1; assay: kcat; higher = faster cleavage; RNA array
Method in brief: (§1)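 Tracking of barcoded ribozyme variants used a hybridised Cy3 probe at 37 °C, after in situ transcription by E. coli RNA polymerase on sequenced MiSeq chips. The flowed solution held 40 μM to 10 mM glucosamine-6-phosphate in HEPES/KCl/Mg(OAc)2 buffer, and imaging ran over ~14 h. kobs was taken from exponential decay fits of normalised per-tile medians, and kcat and KM from weighted Michaelis–Menten fits.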

glucosamine-6-phosphate [2] = variants of: B1; assay: self-cleavage kobs at 2500 uM GlcN6P; higher = faster cleavage; RNA array
Method in brief: as §1

glucosamine-6-phosphate [3] = variants of: B1; assay: self-cleavage kobs at 10000 uM GlcN6P; higher = faster cleavage; RNA array
Method in brief: as §1

glucosamine-6-phosphate [4] = variants of: B1; assay: KM; higher = weaker cofactor use; RNA array
Method in brief: as §1

glucosamine-6-phosphate [5] = variants of: B1; assay: self-cleavage kobs at 160 uM GlcN6P; higher = faster cleavage; RNA array
Method in brief: as §1

glucosamine-6-phosphate [6] = variants of: B1; assay: self-cleavage kobs at 640 uM GlcN6P; higher = faster cleavage; RNA array
Method in brief: as §1

glucosamine-6-phosphate [7] = variants of: B1; assay: self-cleavage kobs at 40 uM GlcN6P; higher = faster cleavage; RNA array
Method in brief: as §1

Row | Variant | kcat (glucosamine-6-phosphate [1]) [s⁻¹] | self-cleavage kobs at 2500 uM GlcN6P (glucosamine-6-phosphate [2]) [s⁻¹] | self-cleavage kobs at 10000 uM GlcN6P (glucosamine-6-phosphate [3]) [s⁻¹] | KM (glucosamine-6-phosphate [4]) [µM] | self-cleavage kobs at 160 uM GlcN6P (glucosamine-6-phosphate [5]) [s⁻¹] | self-cleavage kobs at 640 uM GlcN6P (glucosamine-6-phosphate [6]) [s⁻¹] | self-cleavage kobs at 40 uM GlcN6P (glucosamine-6-phosphate [7]) [s⁻¹]
1 | C61G U69A | 2.83e-05 ± 3.9e-06 | – | – | – | – | – | –
2 | G59A C67G | 1.27e-05 ± 2.9e-06 | – | – | – | – | – | –
3 | C10G A52G U56A C70A | 1.68e-05 ± 4.2e-06 | – | – | – | – | – | –
4 | G13A U69C | 0.000255 ± 8.6e-05 | 0.000132 ± 2.8e-05 | 0.000179 ± 4.5e-05 | – | – | – | –
5 | G60A C67G | 1.56e-05 ± 2e-06 | – | – | – | – | – | –
6 | A15G A52G | 0.00182 ± 0.00044 | 0.000596 ± 8.6e-05 | 0.0015 ± 0.00019 | 3750 ± 1400 | 8.59e-05 ± 2.3e-05 | 0.000293 ± 3.7e-05 | –
7 | A53G C58G | 0.000112 ± 2.4e-06 | 6.79e-05 ± 1.2e-05 | 9.67e-05 ± 9.9e-06 | 1580 ± 120 | – | 3.28e-05 ± 1.1e-05 | –
8 | G29A | 0.00814 ± 0.00078 | 0.00558 ± 0.00024 | 0.00697 ± 0.00023 | 1590 ± 200 | 0.000639 ± 6.2e-05 | 0.00201 ± 9.3e-05 | 0.000207 ± 4.5e-06
9 | A14U A39U A52G | 0.00264 ± 0.00045 | 5.72e-05 ± 1.2e-05 | 0.000214 ± 3.7e-05 | – | – | – | –
10 | C16U A42U A64G | 0.000175 ± 4.3e-05 | 7.15e-05 ± 1.6e-05 | 0.000122 ± 2.6e-05 | – | – | – | –
11 | C10G A12G A53C G59C | 1.95e-05 ± 6.6e-06 | – | – | – | – | – | –
12 | C10G G62U | < 1e-05 | – | – | – | – | – | < 1e-05
13 | C16G U69A | 4.79e-05 ± 1e-05 | 5.05e-05 ± 1.2e-05 | 3.59e-05 ± 1.2e-05 | – | – | 6.57e-05 ± 1.6e-05 | –
14 | A15U U49G C50G G63A | 2.96e-05 ± 6.8e-06 | – | – | – | – | – | < 1e-05
15 | C10U C34A C50A G51U C70A | 5.4e-05 ± 1.3e-05 | – | 7.55e-05 ± 2.9e-05 | – | – | – | –
16 | U65G U69C | 0.00467 ± 0.0019 | 0.00108 ± 0.00019 | 0.00297 ± 0.0005 | – | 0.000177 ± 4.5e-05 | 0.000431 ± 8.3e-05 | –
17 | A48U C50G C67A C68U | 1.99e-05 ± 2.7e-06 | – | – | – | – | – | –
18 | G29U G37U | < 1e-05 | – | < 1e-05 | – | – | – | –
19 | G32U U69A | 9.32e-05 ± 6.2e-06 | 9.1e-05 ± 1.4e-05 | 8.84e-05 ± 1.1e-05 | 142 ± 64 | – | 8.92e-05 ± 1.9e-05 | –
20 | A14G G40U | 0.00991 ± 0.0013 | 0.00713 ± 0.0011 | 0.00879 ± 0.0013 | 1350 ± 250 | 0.00117 ± 0.00023 | 0.00267 ± 0.00043 | 0.000302 ± 4.1e-05

Row | Variant | kcat (glucosamine-6-phosphate [1]) [s⁻¹] | self-cleavage kobs at 2500 uM GlcN6P (glucosamine-6-phosphate [2]) [s⁻¹] | self-cleavage kobs at 10000 uM GlcN6P (glucosamine-6-phosphate [3]) [s⁻¹] | KM (glucosamine-6-phosphate [4]) [µM] | self-cleavage kobs at 160 uM GlcN6P (glucosamine-6-phosphate [5]) [s⁻¹] | self-cleavage kobs at 640 uM GlcN6P (glucosamine-6-phosphate [6]) [s⁻¹] | self-cleavage kobs at 40 uM GlcN6P (glucosamine-6-phosphate [7]) [s⁻¹]
21 | C10U U31G | 2.34e-05 ± 1.5e-06 | – | – | 552 ± 200 | – | – | < 1e-05
22 | U30G G41A | 0.000293 ± 2.6e-05 | 0.00025 ± 4.4e-05 | 0.000248 ± 4.4e-05 | 881 ± 160 | 4.24e-05 ± 1.1e-05 | 0.000124 ± 2e-05 | –
23 | A15U U46G | 0.000901 ± 0.00012 | 0.000642 ± 8.4e-05 | 0.000725 ± 7.1e-05 | 1650 ± 380 | 6.81e-05 ± 1e-05 | 0.000292 ± 3.4e-05 | –
24 | G32A G59A | 1.74e-05 ± 3.1e-06 | – | – | – | < 1e-05 | – | –
25 | G37A A39C | 0.00108 ± 0.0001 | 0.000399 ± 6e-05 | 0.000742 ± 0.00013 | 4350 ± 560 | 3.21e-05 ± 1.1e-05 | 0.000144 ± 1.8e-05 | –
26 | G40U U69G | < 1e-05 | – | – | 1720 ± 260 | < 1e-05 | < 1e-05 | < 1e-05
27 | U65A C71U | 0.00196 ± 0.00076 | 0.0011 ± 0.0002 | 0.00301 ± 0.00053 | – | 0.000277 ± 4.1e-05 | 0.00117 ± 0.00012 | 0.000139 ± 2.2e-05
28 | U65C C71G | 4.3e-05 ± 1.5e-05 | 8.15e-05 ± 1.6e-05 | 3.44e-05 ± 8.1e-06 | – | – | – | < 1e-05
29 | G43U G66A | 2.89e-05 ± 1.6e-06 | – | – | 431 ± 170 | – | – | –
30 | G29A G59C C70G | < 1e-05 | – | – | – | – | – | –
31 | U46G A64G | 0.0154 ± 0.0048 | 0.00387 ± 0.001 | 0.0119 ± 0.0016 | 4300 ± 1900 | – | 0.00216 ± 0.00079 | 0.000157 ± 2.3e-05
32 | U46G C50U U69A | 3.77e-05 ± 1.1e-05 | – | 4.11e-05 ± 1.3e-05 | – | – | – | –
33 | G51A G62U | < 1e-05 | – | – | – | < 1e-05 | – | –
34 | C16G G40U | 0.00053 ± 2.1e-05 | 0.000171 ± 2.7e-05 | 0.000357 ± 4.2e-05 | 4960 ± 340 | – | 6.22e-05 ± 1.1e-05 | –
35 | G37C | 5.32e-05 ± 1.7e-06 | 3.22e-05 ± 1.5e-06 | 4.71e-05 ± 8.5e-07 | 1380 ± 210 | – | 1.88e-05 ± 1.5e-06 | –
36 | G13A U65A | 0.000116 ± 3.9e-05 | 2.1e-05 ± 9.1e-06 | 5.81e-05 ± 8.7e-06 | – | – | – | < 1e-05
37 | C16U G32U | 0.0024 ± 0.00062 | 0.000519 ± 5.8e-05 | 0.00137 ± 0.00015 | 8100 ± 2900 | 4.18e-05 ± 1e-05 | 0.000214 ± 3.2e-05 | –
38 | G40C U49G | 6.75e-05 ± 1.8e-05 | 5.43e-05 ± 1.5e-05 | 5.5e-05 ± 1.3e-05 | – | – | – | < 1e-05
39 | U31G U56C | 0.000772 ± 3.5e-05 | 0.000413 ± 0.00012 | 0.000628 ± 9.2e-05 | 2210 ± 180 | 4.9e-05 ± 1.7e-05 | 0.000179 ± 2.9e-05 | –
